The source of these data is patent publication US20190336574A1 (TRUSTEES OF PRINCETON UNIVERSITY, published 2019).

The chains are these.
T1: His-SND1 (16-339), SN1/2 domains, wild type (human, UniProt Q7KZF4 16-339)
T1 construct: also called His6-SND1 harboring the SN1/2 domains; not shown: N-terminal His tag (His6, His8 or His) with TEV site, pQlink vector
T1 sequence: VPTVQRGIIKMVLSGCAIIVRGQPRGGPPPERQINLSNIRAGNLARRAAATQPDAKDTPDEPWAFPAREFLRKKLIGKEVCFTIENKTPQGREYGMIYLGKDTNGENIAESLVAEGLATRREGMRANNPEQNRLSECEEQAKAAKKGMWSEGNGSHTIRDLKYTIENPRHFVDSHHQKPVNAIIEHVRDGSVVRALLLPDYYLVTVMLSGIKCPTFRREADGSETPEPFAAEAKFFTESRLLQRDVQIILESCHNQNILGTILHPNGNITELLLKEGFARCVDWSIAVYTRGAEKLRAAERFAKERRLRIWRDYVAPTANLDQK

T2: HA-SND1, full-length human, wild type (human, UniProt Q7KZF4 1-910)
T2 construct: Full-length, HA-tagged; Expressed in HEK293T cells, tested in lysate; also called HA-tagged SND1; WT HA-SND1
T2 sequence: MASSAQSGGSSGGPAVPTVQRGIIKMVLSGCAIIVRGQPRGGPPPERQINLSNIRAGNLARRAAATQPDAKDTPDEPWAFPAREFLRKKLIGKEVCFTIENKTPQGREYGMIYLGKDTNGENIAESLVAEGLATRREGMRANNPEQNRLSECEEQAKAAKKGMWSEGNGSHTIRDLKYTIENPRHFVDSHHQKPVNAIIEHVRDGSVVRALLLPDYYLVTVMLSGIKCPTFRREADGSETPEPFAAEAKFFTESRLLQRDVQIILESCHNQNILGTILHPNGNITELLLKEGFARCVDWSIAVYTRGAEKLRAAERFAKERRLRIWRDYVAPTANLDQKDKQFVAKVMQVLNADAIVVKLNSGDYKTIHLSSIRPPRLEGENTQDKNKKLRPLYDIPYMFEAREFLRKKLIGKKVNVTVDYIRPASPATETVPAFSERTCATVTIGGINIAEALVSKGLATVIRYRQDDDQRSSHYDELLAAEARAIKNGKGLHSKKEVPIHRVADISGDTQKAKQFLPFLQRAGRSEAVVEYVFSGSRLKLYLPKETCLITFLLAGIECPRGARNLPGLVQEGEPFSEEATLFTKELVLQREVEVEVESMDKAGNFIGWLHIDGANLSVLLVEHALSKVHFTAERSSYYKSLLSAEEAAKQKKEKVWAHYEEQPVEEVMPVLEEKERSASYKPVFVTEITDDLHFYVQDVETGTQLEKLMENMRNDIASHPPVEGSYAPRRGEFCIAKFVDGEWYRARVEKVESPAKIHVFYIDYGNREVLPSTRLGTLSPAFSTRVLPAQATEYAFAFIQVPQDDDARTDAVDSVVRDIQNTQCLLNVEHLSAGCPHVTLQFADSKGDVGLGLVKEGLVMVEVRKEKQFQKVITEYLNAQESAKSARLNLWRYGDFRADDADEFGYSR

T3: murine SND1, wild type (mouse, UniProt Q78PY7 1-910)
T3 construct: Endogenous protein of murine PyMT mammary tumor cells; also called SND1 (in PyMT tumor cells); WT shRNA-resistant murine SND1
T3 sequence (looked up): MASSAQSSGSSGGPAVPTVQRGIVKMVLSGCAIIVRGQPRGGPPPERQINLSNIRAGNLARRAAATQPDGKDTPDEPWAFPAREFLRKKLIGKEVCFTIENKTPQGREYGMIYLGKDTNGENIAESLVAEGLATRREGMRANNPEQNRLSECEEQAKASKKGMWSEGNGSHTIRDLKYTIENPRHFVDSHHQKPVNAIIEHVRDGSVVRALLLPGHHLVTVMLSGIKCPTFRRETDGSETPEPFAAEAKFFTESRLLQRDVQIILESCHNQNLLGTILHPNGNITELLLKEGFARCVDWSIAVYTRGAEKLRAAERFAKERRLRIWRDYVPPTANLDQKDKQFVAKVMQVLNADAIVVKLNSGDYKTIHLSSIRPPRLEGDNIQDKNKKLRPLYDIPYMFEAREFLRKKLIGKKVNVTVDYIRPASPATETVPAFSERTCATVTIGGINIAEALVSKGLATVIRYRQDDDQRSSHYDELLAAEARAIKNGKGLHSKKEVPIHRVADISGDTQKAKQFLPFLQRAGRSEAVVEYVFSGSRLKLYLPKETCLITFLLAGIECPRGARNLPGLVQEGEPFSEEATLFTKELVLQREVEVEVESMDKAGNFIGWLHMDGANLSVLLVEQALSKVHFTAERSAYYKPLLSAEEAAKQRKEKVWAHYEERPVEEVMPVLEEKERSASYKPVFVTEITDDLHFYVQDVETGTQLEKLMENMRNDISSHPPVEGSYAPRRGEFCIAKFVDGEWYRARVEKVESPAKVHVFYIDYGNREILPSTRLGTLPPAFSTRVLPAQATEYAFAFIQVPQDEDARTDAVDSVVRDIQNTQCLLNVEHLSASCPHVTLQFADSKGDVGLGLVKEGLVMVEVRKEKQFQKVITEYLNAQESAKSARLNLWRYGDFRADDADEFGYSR

B1: E400D/N403L (other)
fusion protein: SSADPNSDWNAPAEDWGLWVDE
notes: member of the group m64
B2: N395K (other)
fusion protein: SSADPNSDWKAPAEEWGNWVDE
notes: member of the group m64
B3: Myc-MTDH D389R, full-length human (other)
chain: MAARSWQDELAQQAEEGSARLREMLSVGLGFLRTELGLDLGLEPKRYPGWVILVGTGALGLLLLFLLGYGWAAACAGSRKKRRSPPRKREEAAAVPAAAPDDLALLKNLRSEEQKKKNRKKLSEKPKPNGRTVEVAEGEAVRTPQSVTAKQPPEIDKKNEKSKKNKKKSKSDAKAVQNSSRHDGKEVDEGAWETKISHREKRQQRKRDKVLTDSGSLDSTIPGIENTITVTTEQLTTASFPVGSKKNKGDSHLNVQVSNFKSGKGDSTLQVSSGLNENLTVNGGGWNEKSVKLSSQISAGEEKWNSVSPASAGKRKAEPSAWSQDTGDANTNGKDWGRSWSDRSIFSGIGSTAEPVSQSTTSDYQWDVSRNQPYIDDEWSGLNGLSSARPNSDWNAPAEEWGNWVDEERASLLKSQEPIPDDQKVSDDDKEKGEGALPTGKSKKKKKKKKKQGEDNSTAQDTEELEKEIREDLPVNTSKTRPKQEKAFSLKTISTSDPAEVLVKNSQPIKTLPPATSTEPSVILSKSDSDKSSSQVPPILQETDKSKSNTKQNSVPPSQTKSETSWESPKQIKKKKKARRET
notes: Full-length, Myc-tagged; also called SPM11
B4: Myc-MTDH W401A, full-length human (other)
chain: B3 chain with R389D, W401A
notes: Full-length, Myc-tagged
B5: Myc-MTDH W394A, full-length human (other)
chain: B3 chain with R389D, W394A
notes: Full-length, Myc-tagged
B6: Myc-MTDH W394D, full-length human (other)
chain: B3 chain with R389D, W394D
notes: Full-length, Myc-tagged; also called SPM13
B7: murine MTDH TPM1 (D386R, D390R, W391D) (other, mouse, UniProt Q80WJ7 1-579, looked up)
chain: MAARSWQDELAQQAEEGSARLRELLSVGLGFLRTELGLDLGLEPKRYPGWVILVGTGALGLLLLFLLGYGWAAACAGARKKRRSPPRKREEAAPPTPAPDDLAQLKNLRSEEQKKKNRKKLPEKPKPNGRTVEVPEDEVVRNPRSITAKQAPETDKKNEKSKKNKKKSKSDAKAVQNSSRHDGKEVDEGAWETKISHREKRQQRKRDKVLTDSGSLDSTIPGIENIITVTTEQLTTASFPVGSKKNKGDSHLNVQVSNFKSGKGDSTLQVSSRLNENLTVNGGGWSEKSVKLSSQLSEEKWNSVPPASAGKRKTEPSAWTQDTGDTNANGKDWGRNWSDRSIFSGIGSTAEPVSQSTTSDYQWDVSRNQPYIDDEWSGLNGLSSARPSSRDNAPAEEWGNWVDEDRASLLKSQEPISNDQKVSDDDKEKGEGALPTGKSKKKKKKKKKQGEDNSHTQDTEDLEKDTREELPVNTSKARPKQEKACSLKTMSTSDPAEVLIKNSQPVKTLPPAISAEPSITLSKGDSDNSSSQVPPMLQDTDKPKSNAKQNSVPPSQTKSETNWESPKQIKKKKKARRET
notes: also called TPM1 (murine form)
B8: murine MTDH W398A (printed as W401A in human numbering) (other, mouse, UniProt Q80WJ7 1-579, looked up)
chain: B7 chain with R386D, R390D, D391W, W398A
notes: also called W401A (murine form)
B9: murine MTDH TPM2 (E396R, E397R, W398D) (other, mouse, UniProt Q80WJ7 1-579, looked up)
chain: B7 chain with R386D, R390D, D391W, E396R, E397R, W398D
notes: also called TPM2 (murine form)
B10: murine MTDH W391A (printed as W394A in human numbering) (other, mouse, UniProt Q80WJ7 1-579, looked up)
chain: B7 chain with R386D, R390D, D391A
notes: also called W394A (murine form)

Where a chain is given by its changes, count along the chain named. In names and notes the source's numbering stands.

The first test addresses T1, His-SND1 (16-339), SN1/2 domains, wild …. Nature of the test: GST titration pull-down: GST-MTDH (386-407) on glutathione resin, SND1 (SN1/2) at 10, 3, 1, 0.5, 0.25, 0.12 (the sheet prints mM, paragraph 254 says µM), SDS-PAGE, Coomassie blue.
Take B1: the “Estimated Binding Affinity” value was approximately 0.9 µM.

For the molecule B2, the “Estimated Binding Affinity” value was approximately 0.8 µM.

A further test addresses T2, HA-SND1, full-length human, wild type. The test can be described thus: co-IP from HEK293T lysates (anti-HA per text, anti-Myc per legend), western blot. On the procedure:
Immunoprecipitation and western blot: For in vivo immunoprecipitation (IP) experiments, cultured cells were washed in cold PBS and lysed in lysis buffer (20 mM Tris pH 7.4, 0.15 M NaCl, 1 mM EDTA, 1 mM EGTA, 1% Tx-100, 0.0025 M Na2P2O7, 1 mM β-glycerolphosphate, 1 mM Na3VO4, and 1 mM NaF) with an EDTA-free protease inhibitor mixture (Roche Applied Science) and PMSF. Cell lysates were then incubated on ice for 10 min, centrifuged, and precleared by incubating with protein A/G beads (Santa Cruz Biotechnology) for 1 h at 4° C. For IP bead preparation, 30 μl of protein A/G beads were incubated with 5 μg of antibodies for 2 h at 4° C. IPs were carried out for overnight at 4° C., and beads were centrifuged, washed and subsequently boiled for 5 min in SDS protein loading buffer to elute bound protein. IP lysates were subjected to western blotting with indicated antibodies.
It was further examined how the MTDH and SND1 mutations identified at this interface affected the interaction of full-length proteins in mammalian cells. Full-length HA-tagged SND1 was co-expressed with full-length Myc-tagged wild-type (WT) or mutant MTDH in HEK293T cells and cell lysates were subjected to anti-HA immunoprecipitation for SND1 pull down. Consistent with in vitro observations (FIG. 22A), WT MTDH, but not mutants W394A, W394D, or W401A, was pulled down along with HA-SND1 (FIG. 22C, in red). […] Likewise, the SND1 mutations that affected MTDH-binding in vitro also affected the binding of full-length proteins in vivo to similar levels.
For orientation: Immunoblotting shows a protein as a band on a membrane.
B3: the binding result is listed as “binds”.

B4: the binding result was “no binding”.

For the molecule B5, the binding result is “no binding”.

Regarding B6, the binding result is reported as “no binding”.

Another test has as its target T3, murine SND1, wild type. The test can be described thus: co-IP (anti-MTDH) from reconstituted PyMT;Mtdh-/- tumor cells, western blot. The text has this:
IP lysates were subjected to western blotting with indicated antibodies.
In particular, genetic deletion of Mtdh in mice impairs the tumor-initiating potential of mammary epithelial cells transformed by diverse oncogenes (PyMT, Wnt, ErbB2) or carcinogen stimuli, and this defect can be readily rescued by reintroducing MTDH into Mtdh-knockout (Mtdh−/−) tumor cells by lentiviral transduction. To test whether interacting with SND1 is important for the tumor-initiating effect of MTDH, the murine form of WT or mutant MTDH (W394A or W401A, corresponding mutations in mouse are W391A, W398A) was stably expressed in mammary tumor cells from PyMT;Mtdh−/− mice. […] To examine how MTDH mutations affect tumor formation in vivo, PyMT;Mtdh−/− tumor cells were orthotopically transplanted into the mammary fat pads of WT recipient mice. […] Furthermore, the size of tumors formed by PyMT;Mtdh−/− tumor cells reconstituted with mutant MTDH was much smaller than that with WT MTDH (FIG. 23D-E).
On to B7, for which the binding result was “no binding”.

As to B8, the binding result was “no binding”.

With B9, the binding result is “no binding”.

As to B10, the binding result is on record as “no binding”.
